Experimental data reported in the DeepSol protein solubility set.

Assay: soluble on expression in E. coli; label from the status in PepcDB or PDB records

Row | Sequence | soluble on expression in E. coli
1 | MKDQLGFRIVLCSAVFIILTQNRALADLDSESHEVNSESVGEEQWEMVQRKGMQFTLNGQPFYVNGFNTYWMMTLAADNSTRGKVTEVFQQASAVGMTVGRTWAFNDGQWRALQKSPSVYDEEVFKALDFVLSEARKYKIRLILSLVNNWDAYGGKAQYVKWGNASGLNLTSDDDFFTNPTLRNFYQSHVRTVLNRVNTFTNITYKNDPTIFAWELMNEPRCPSDPSGDKLQSWIQEMAVFVKSLDAKHLVEIGLEGFYGPSAPARTRFNPNPYAAQVGTDFIRNNQVLGIDFASVHVYPDSWISPAVSNSFLEFTSSWMQAHVEDAEMYLGMPVLFTEFGVSAHDPGFNTSFRDMMLNTVYKMTLNSTRKGGAGAGSLVWQVFPQGAEFMDDGYAVYLTRAHTASKIISLQSKRLAIFNSLCSWRCRWGCKKKNQTALDALLSHDEL | soluble
2 | MKDWLDEIHWNADGLVPAIAQDHETGRVLMMAWMNREALALTASENRAIYWSRSRGKLWRKGEESGHVQKLHELRLDCDADVVILMVEQVGGIACHTGRESCFYRVFENGAWKTVDPVLKDPDAIYEHAGHHHE | not soluble
3 | MKEHHIPKNSIITVAGTVGVGKSTLTKTLAKRLGFKTSLEEVDHNPYLEKFYHDFERWSFHLQIYFLAERFKEQKTIFEAGGGFVQDRSIYEDTGIFAKMHADKGTMSKVDYKTYTSLFEAMVMTPYFPHPDVLIYLEGDLENILNRIEQRGREMELQTSRSYWEEMHTRYENWISGFNACPVLKLRIEDYDLLNDENSIENIVDQIASVIHDNQKKLEHHHHHH | not soluble
4 | MKEKVVSLAQDLIRRPSISPNDEGCQQIIAERLEKLGFQIEWMPFNDTLNLWAKHGTSEPVIAFAGHTDVVPTGDENQWSSPPFSAEIIDGMLYGRGAADMKGSLAAMIVAAEEYVKANPNHKGTIALLITSDEEATAKDGTIHVVETLMARDEKITYCMVGEPSSAKNLGDVVKNGRRGSITGNLYIQGIQGHVAYPHLAENPIHKAALFLQELTTYQWDKGNEFFPPTSLQIANIHAGTGSNNVIPAELYIQFNLRYCTEVTDEIIKQKVAEMLEKHNLKYRIEWNLSGKPFLTKPGKLLDSITSAIEETIGITPKAETGGGTSDGRFIALMGAEVVEFGPLNSTIHKVNECVSVEDLGKCGEIYHKMLVNLLDS | soluble
5 | MKETEQVSEAPHGLEGAWLDLTNRVRVSGDTVEACSAFSIGPPRCRWLLQATDRGVNCAALDHYVPHICGTHTETVYHIAHHRYIKRAVCEIPFFRFHKARIQVCTAKIACTEQVLPSADTDYPCLEPNDLIVGPSALNRAPRYTRAQDSTIEALILIVVGPDGTSDWRDGKLDDRPPYLTPAAIESLATRYPNMRHLLTNLPSVDRRRDGGLVRSHRAFFATDFAGDGTPSESPQKTITELLRVPPDWQLYDDAEGVVCISLAPIEGLDAIPSSVYFKSH | not soluble
6 | MKEVIAQNAKLSADDLKEILPKANKLEDFAFEKNEDSTISEVFQAKNGSENEGYIIKVSPKGFNGPIDMVVAIDKNREISGVKVLSQAETPGLGAKVEESSFSEKFKGLTIEDNIKIVKTSPSSQGEIQGITGATISSNAVSSGINDAISFYKENVLGEDLSKEKILNLSKINLEGDLKELTIELEEGIDKVSIVSNGEKEIGYAIEASEVGMYEEKPIKFALGISTGGIITGVQIIDHKETAGLGDLIEDENFLNSFIGVSSLDKLSVKENTNEIDLSVYGEVVNVDSISGATKSSMAIIKGITNVINFYNNNLSLEHHHHHH | soluble
7 | MKFDNKAPIYIQIMDKIKIDIINGTLKPGDKLPSVREMAVKFKVNPNTLQRVYQELERENITYTQRGTGSFVREDSDMIINLKKEMASEVIENFIENIKEFGFGNKDILKIVEDKLNEEEK | soluble
8 | MKFETINQESIAKLMEIFYEKVRKDKDLGPIFNNAIGTSDEEWKEHKAKIGNFWAGMLLGEGDYNGQPLKKHLDLPPFPQEFFEIWLKLFEESLNIVYNEEMKNVILQRAQMIASHFQNMLYKYGGH | soluble
9 | MKFHVIDRENWNREQYFEHYLELKCTFSMTVNVDITLLIKKVHQKGIKFYPTFIYIISRIINKHKEFRTCFNDEGVLGYWEEMIPSYTIFHKDDKSFSSIWTDYSSDFRIFYKNYEEDMRCYASVHGLLTKENIPPNIFPISGIPWTSFTGFNLNINNDGDFLLPIITCGKYFNEENKIMLPVSLQVHHSVCDGYHVSRFIEDLQELSNSCNEWLK | not soluble
10 | MKFIIEALKRVRERRPLVHNITNFVVMNTTANALLALGASPVMAHAEEELEEMIRLADAVVINIGTLDSGWRRSMVKATEIANELGKPIVLDPVGAGATKFRTRVSLEILSRGVDVLKGNFGEISALLGEEGKTRGVDSLEYGEEEAKKLTMNAAREFNTTVAVTGAVDYVSDGRRTFAVYNGHELLGRVTGTGCMVAALTGAFVAVTEPLKATTSALVTFGIAAEKAYEEAKYPGSFHVKLYDWLYRINENVIRTYAKVREVEL | soluble
11 | MKFIIKLFPEITIKSQSVRLRFIKILTGNIRNVLKHYDETLAVVRHWDNIEVRAKDENQRLTIRDALTRIPGIHHILEVEDVPFTDMHDIFEKALVQYRDQLDGKTFCVRVKRRGKHDFSSIDVERYVGGGLNQHIESARVKLTNPDVTVHLEVEDDRLLLIKGRYEGIGGFPIGTQEDVLSLISGGFDSGVSSYMLMRRGCRVHYCFFNLGGAAHEIGVRQVAHYLWNRFGSSHRVRFVAINFEPVVGEILEKIDDGQMGVILKRMMVRAASKVAERYGVQALVTGEALGQVSSQTLTNLRLIDNVSDTLILRPLISYDKEHIINLARQIGTEDFARTMPEYCGVISKSPTVKAVKSKIEAEEEKFDFSILDKVVEEANNVDIREIAQQTGQEVVEVETVNDFGPNDVILDIRSVDEQEDKPLKVEGIDVVSLPFYKLSTKFGDLDQNRTWLLWCERGVMSRLQALYLREQGFKNVKVYRP | not soluble
12 | MKFKKLFSRLLLATGIMFAGTFTYQNIEHTHVSKAASYNYYTKGQCTWWAYQRRAQLGKPVSNRWGNAKNWYYNAKRSGYRTGHTPKRYAVMQSTAGYYGHVAVVERVYSNGSIKVSEYNYNRPSAYGTRYLSKWSARNYNYIYLEHHHHHH | not soluble
13 | MKFPGQRKSKHYFPVHARDPLVSQAQEAKKMSRTHIIGIDQTLVDIEAKVDDAFIEKYGLSKGHSLVIDNDKAEMLYNELKDNNMISNEFAGGTIGNTLHNYSVLADDKSTLLGVMSEDIHIGSYSYRYLCNTSSRMDLNYLQPVPGAIGRCFALISEDGERTFAISEGDMNQLRAESIPEKIFKNASALVLTAYLVRCKEGDPMPEATMKAIEYAKKYDVPVVLTMGTKFVVQDDPQYWRDFLNDHVTVVAMNEEEGEALTGATDPLEAANKTLEWVDLVLCTAGPVGLYMAGYTEDSAKRETSLPLLPGTIAEFNQFEFSRPAVKDSCENPIKVFSHISPYMGGPEKIKNTNGAGDGALSALLHDMAANHYHRNNVPNSSKHQHSFLTYSSFSQVCKYSNRVSFEVLAQHSPRLSRGLPEREDSLEEAYWER | not soluble
14 | MKFTFEVPAPLQQVAPISYYESLLSNYRYRDISFLEMSTTGKILGECTIGENNYTIQGSECDGLISSIEILDVKEADSFLDIPLSLPNRKFVKALKDLGIEFDHDRDGVTIHHENRVIALSYQFGKVAAICWDSE | not soluble
15 | MKFVLAVHGTRGDVEPCAAVGVELRRRGHAVHMAVPPNLIEFVESAGLTGVAYGPDSDEQINTVAAFVRNLTRAQNPLNLARAVKELFVEGWAEMGTTLTTLADGADLVMTGQTYHGVAANVAEYYDIPAAALHHFPMQVNGQIAIPSIPTPATLVRATMKVSWRLYAYVSKDADRAQRRELGLPPAPAPAVRRLAERGAPEIQAYDPVFFPGLAAEWSDRRPFVGPLTMELHSEPNEELESWIAAGTPPIYFGFGSTPVQTPVQTLAMISDVCAQLGERALIYSPAANSTRIRHADHVKRVGLVNYSTILPKCRAVVHHGGAGTTAAGLRAGMPTLILWDVADQPIWAGAVQRLKVGSAKRFTNITRGSLLKELRSILAPECAARAREISTRMTRPTAAVTAAADLLEATARQTPGSTPSSSPGR | not soluble
16 | MKGDRLADIRTIGVVVLYRPDSSVLDAIASYRHQVHELIVVDNSEEQDHKLHSRLRDRFGATIVGEGRNLGIAAALNRAAREALAEGFDLLLTMDQDSRAEPGMVEQMLACLGSDWRERVGLIAPFHLTGARPAPGGTTPCSDVMTPMTSGCLVNLAAFREVGPFRDDFFIDFVDNEYCLRLRKKGFQVVRANRALLHHRVGDLRRYGPFVATHHSPLRRYYKTRNRCAVFAEYLRDFPVHCLFDLVRLGKEVASILIFEREKTAKLRMMWRGFLDFRRGRFGPYGGLEHHHHHH | not soluble
17 | MKGIARLVTSLSRIGGRKVVSGTSTVTSSSSSSLLLSRRSLFISATNLLNSRTKDSALPSLNSSLLAQKWNFLGGQRRTMFIQTQSTPNPSSLMFYPGKPVMEVGSADFPNVRSALGSPLAKSIYSIDGVVRVFFGSDFVTVTKSDDVSWDILKPEIFAAVMDFYSSGQPLFLDSQAAAAKDTAISEDDSETVAMIKELLETRIRPAVQDDGGDIEYCGFDPESGIVKLRMQGACSGCPSSSVTLKSGIENMLMHYVSEVKGVEQEFDGEDEEGTLSGEMRVE | not soluble
18 | MKGSASTKPGGSPSTSRTAHPARANTSGNASTSGKQPQGPRAPVHAKGKPKRGGAEAEATESDKVAYTVIITNVENDFGKLHRACLPYYCGLRSDYEGTLDVERLLHEGGPQSRRLIGAVRGCSYAVRCRTETRSAEISLYGPANADFAPMQLTKAPRRPSTPAADAKSMAAPTTSSSEKLAQKDTTAPAEDVSEETALANVGAVEQLALRLRRQHYFEEHLPVSVHLPGRKADEVLLRIDKGSASSDADGTNATGVKNEEANGVAEDADADRRGSAATPVTASASREKRQRVVEEDRNADAPSLQRVKAEAPDGDEEGTEEDSATAHERGKTTENDVDRRADNGGRRSRRLTKSKSATIIAQFPRRQKDFVTAVAALSSRVPLQRVRGRLRDLPGFLSCWSLYERHLRVVFRDAESLFKAKQLLDQFELEPGLRVSLIFSDPLSRTNAEYLRAQENESVNE | not soluble
19 | MKGSRIELGDVTPHNIKQLKRLNQVIFPVSYNDKFYKDVLEVGELAKLAYFNDIAVGAVCCRVDHSQNQKRLYIMTLGCLAPYRRLGIGTKMLNHVLNICEKDGTFDNIYLHVQISNESAIDFYRKFGFEIIETKKNYYKRIEPADAHVLQKNLKVPSGQNADVQKTDN | soluble
20 | MKHHHHHHGKAAGVTLGEVWKRQLNMLGKQEFERYKVSDITEVDRTAARRYLKEGRTDVGISVSRGAAKIRWLHERGYLRITGRVLDLGCGRGGWSYYAAAQKEVMSVKGYTLGIEGHEKPIHMQTLGWNIVKFKDKSNVFTMPTEPSDTLLCDIGESSSNPLVERDRTMKVLENFERWKHVNTENFCVKVLAPYHPDVIEKLERLQLRFGGGIVRVPFSRNSTHEMYYISGARNNITHMVNTTSRSLLRRMTRPSGKAIIEGDVFLPTGTRSVASEAGTIDHEALKLRVDQIKAEYSKT | soluble
